Drawing on patent publication US20040259798A1, this text covers IC50 and fold less active than C(1-8;3-9) for two molecules.

The target of assay [1] is β2 integrins on THP-1 cells. In words: inhibition of THP-1 cell adhesion to coated LLG-C4-GST, phosphatase assay.
Assay [2] has as its target β2 integrins on THP-1 cells. Briefly: inhibition of THP-1 cell adhesion to coated von Willebrand factor, phosphatase assay.
Assay [3] addresses β2 integrins on THP-1 cells. Briefly: inhibition (partial) of THP-1 cell adhesion to coated type IV collagen, phosphatase assay.
For assay [4], the target named is β2 integrins on THP-1 cells. Briefly: inhibition of THP-1 cell adhesion to coated LLG-C4-GST.

A word on the IC50: it is the concentration that inhibits the measured activity by half.

Bridge positions count the residues as written; N and C are the ends. Ends that are not written are not given here.

B1: C(1-8;3-9) peptide (peptide)
peptide: CPCFLLGCC
modifications: disulfide 1-8, 3-9
As for B1, the IC50 in assay [1] was found to be 20 µM; in assay [2] it was 20 µM; in assay [3], 200 µM.

B2: C(1-9;3-8) peptide (peptide)
peptide: CPCFLLGCC
modifications: disulfide 1-9, 3-8
The molecule B2 returned a fold less active than C(1-8;3-9) in assay [4] of 20 fold.
